Experimental data reported in the nanobody polyreactivity screen of Harvey et al. (2022).

Assay: yeast display, Sf9 membrane polyspecificity reagent, FACS + sequencing; frameworks hold sequencing errors
Summary of the method: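 A synthetic nanobody library was expressed on Saccharomyces cerevisiae BJ5465 by galactose induction for 36–48 hours. The library was stained for 1 hour at 4 °C with 10% biotinylated, detergent-solubilized Sf9 membrane reagent and enriched with streptavidin microbeads before FACS. Low and high (top ~1%) gates were set on anti-HA fluorescence for expression and streptavidin fluorescence for reagent binding, and each polyreactivity label reflects the gate of origin.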
In the case of “QVQLVESGGGLVQAGGSLRLSCAASGSIFWRNAMGWYRQAPGKERELVAVISSGGRTYYADSVKGRFTISRDNAKNTVYLQMNSLKPEDTAVYYCAAQYHGGISQRLYYWGQGTQVTVSS”, the “polyreactivity (PSR sort gate)” value is reported as “high polyreactivity”.
For “QVQLVESGGGLVQAGGSLRLICAASGSIFGDNAMGWYRQAPGKERELVARISSGGNTYYADSVKGRFTISRDNAKNTVYLQMNSLKPEDTAVYYCNVYRYDGDYWGQGTQVTVSS”, the “polyreactivity (PSR sort gate)” value was “high polyreactivity”.
In the case of “QVQLVESGGGLVQAGGSLRLSCAASRIFFNGYAMGWYRQAHGSERELVAAITVSGGRTFYADSVKGRFTISRDNAKNTVYLQMNSLKPEDTAVYYCNAVPRRVRLYDYWGQGTQVNVSS”, the “polyreactivity (PSR sort gate)” value is reported as “high polyreactivity”.
For “QVHLVESGGGLVQAGGILRLSCAASMVWYRQAPGKERELVAAINTRTGTTYYADSVKGRFTISRDNAKNTVYLQMNSLKPEDTAVYYCAARTYRTRYYYWGQGTQVTVSS”, the “polyreactivity (PSR sort gate)” value was “high polyreactivity”.
For “QVQLVESGGGLVQAGGSLRLSCAASGSIFYENAMGWYRQAPGKEREFVATIDLIGDRTYYADSVKGRFTISRDNAKNTVYLQMNCLKPEDTAVYYCAAERVGVFFRYDYWGQGTQVTVSS”, the “polyreactivity (PSR sort gate)” value was “low polyreactivity”.
With “QVQLVESGGGLVQAGGSLRLSCAASGRIFNTYAMGWYRQAPGKERELVAAITSSGGSTYYADSVKGRFTISRDNAKNTVYFQMNSLKPEDTAVYYCNAGSLHRRYYYEGDYWGQGTQVTVSS” the “polyreactivity (PSR sort gate)” value was “high polyreactivity”.
For “QVQLVESGGGLVQAGGSLRLSCAASGRIFYSNAMGWYRQAPGKERELVAAITTSGASTYYADSVKGRFTISRDNAKNTVYLQMNSLKPEDTSVYYCATYAVVYPFAMDYWGQGTQVTVSS”, the “polyreactivity (PSR sort gate)” value was “low polyreactivity”.
With “QVQLVESGGGLVQAGGSLRLSCAASGRIVGFYGMGWYRQAPGKERELVARITVGGGSTYYADSVKGRFTISRDNAKNTGYLQMNSLKPEDTAVYYCNAVYARYGSQGYEYWGQGTQVTVSS” the “polyreactivity (PSR sort gate)” value was “high polyreactivity”.
With “QVQLVESGGGLVQAGGSLRLSCAASGRIFGLNAMGWYRQAPGKETEFVAAITWRGGRTYYADSVKGRFTISRDKANKTVYLQMNSLKPEDTAVYYCAADGGSTLDYFWGQGTQVTVSS” the “polyreactivity (PSR sort gate)” value was “low polyreactivity”.
In the case of “QVQLVESGGGLVQAGGSLRLSCAASGIIFDYNAMGWYRQAPGKERELVAAISSSGGSTYYADSVKGRFTLSRDNAKNTVYLLMTSLKPEDTAVYYCAAAPRFRGYDYWGQGTQVTVSS”, the “polyreactivity (PSR sort gate)” value is reported as “high polyreactivity”.
With “QVQLVESGGGLVQAGGSLRLSCAASGRIFTSNTMGWYRQAAGKEGELVAAITSSGGSMYYADSVKGRFTISRDNAKNTVYLQMNSLKPEDTAVYYCAADTIGYHYWYDYWGQGTQVTVSS” the “polyreactivity (PSR sort gate)” value was “low polyreactivity”.
For “QVQLVESGGGLVQAGGSLRLSCAASGRIFSRYAMGWYRQAPGKERELVAAIRWSGGRTYYADSVKGRFTISRDNAKNTVYLQMNSLKPEDTAVYYCAKYRYTVAGYNYWGQGTQVTVSS”, the “polyreactivity (PSR sort gate)” value was “high polyreactivity”.
With “QVQLVESGGGLVQAGGSLRLSCAASGFTFVNYAMGWYRQAPWKERELVAAIRRSGSRTYYADSVKGRFTISRDIAKNTVYLQMNCLNPEDTAVYYCAAVWYRLYGYWGQGTQVTVSS” the “polyreactivity (PSR sort gate)” value was “low polyreactivity”.
For “QVQLVESGGGLVQAGGSLRLSCAASGGIIWAYAMGWYRQAPGKERELVAAISSSTGTTYYADSVKGRFTISRDNAKNTVYLQMNSLKPEDTAVYYCAAYAYIGDYVSYYGGDYWGQGTQVTVSS”, the “polyreactivity (PSR sort gate)” value was “low polyreactivity”.
For “QVQLVESGGGLVQAGGSLRLSCAASGFIFFRYSMGWYRQAPGKERELVATINLGGGSTYADSVKGRFTISRDNAKNTVYLQMTSLKPEDTAVYYSAADVANSIYDYWGQGTLVTVSS”, the “polyreactivity (PSR sort gate)” value was “low polyreactivity”.
In the case of “QGHLVESGGGLVHAGGSLRLSCAASGRIFDVNAMGWYRQAPWKERELVAAISSGGNTKYADSVKGRFTISRDNAKNTVYLQMNSLKPEDTAVYYCIADGKAGGDYDYWGQGTQVTVSS”, the “polyreactivity (PSR sort gate)” value is reported as “low polyreactivity”.
With “QVQLVESGGGLVQAGGSLRLSCAATGFIVAWYAMGWYRQAPGKERELVAAISSSVGSTYYADSVKGRFTISRDIAKNTVYLQMNSLKPEDTAVYYCNADEYWASGYDPYDYWGQGTQVTVSS” the “polyreactivity (PSR sort gate)” value was “low polyreactivity”.
With “QVQLVESGGGLVQAGGSLRLSCAASGITFYRYALGWYRQAPGKERELVAAISSSGGSTYYADSVKGRFTISRDNAKNTVYLQMNRLKPEDTAVYYCNAYYSVEYYYWGQGTQVTVSS” the “polyreactivity (PSR sort gate)” value was “high polyreactivity”.
With “QVQLEESGGGLVQAGGSLRLSCAASGRTFYRSAMGWYRPEPGKERELVAAITWSGGSTYYAVSVKGRFTTSRDNAKNTVYLQMNSLKPEDTAVYYCARRLYPYRPTAYDYWGQGTQVTVSS” the “polyreactivity (PSR sort gate)” value was “low polyreactivity”.
For “QVQIVESGGGLVQAGGILRLSCAASGSTFSFNAMGWYRQAPGKERELVAAITGGDGTIYADSVKGRFTISRDNAKNTVYLQMNSLKPEVTAVYYCAADQWGSTEDYWFTYGYWGQGTQVTVSS”, the “polyreactivity (PSR sort gate)” value was “low polyreactivity”.
In the case of “QVQLVESGGGLVQAGGSLRLSCAASGFIFLSYAMGWYRQAPGKESELVAAITSNGGSTYYADSVKGRFTISRDNAKNTVYLQMNSLKPEDTAVYYCSADSGYGPYYYWGQGTQVTVSS”, the “polyreactivity (PSR sort gate)” value is reported as “high polyreactivity”.
For “HVQLVESGGGLVQAGGSLRLSCAASGFIFVSYAMGWYRQAPGKERELVAAITWSTTSTYYADSVKGRFTISRDNAKNTVYLQMNSLKPEDTAVYYCAKYNFQYKHDYWGQGTQVTVSS”, the “polyreactivity (PSR sort gate)” value was “low polyreactivity”.
In the case of “QVQLVDSGVGLVQAGGSLRLSCAASGRTFTTNTKGWYRDATWKERELVAAITWSGASTYYADSVKGRFTISRDNAKNTVYLQMNSLKPEDTAVYYCAAERTPSYRAYDYWGQGTQVTVSS”, the “polyreactivity (PSR sort gate)” value is reported as “low polyreactivity”.
With “QVQLVESGGGLVQAGGSLRLSCDASGSIFLVYAMGWYRQAPGKERELVAAITSGGSTNYADSVKGRFTISRDNAKNTVYFQMNSLKPEDTAVYNCAAERGDTAYRKYDYWGQGTQVTVSS” the “polyreactivity (PSR sort gate)” value was “low polyreactivity”.
For “QVQLVESGGGLVQAGGSLRLSCAASGRIFYYNGMGWYRQAPGKERELVAAISSRGGSTYYADSVKGRFTISRDNAKNTVYLQMNSLKPEDTAVYYCAATLSDRYSWRPYGMYYWGQGTQVTVSS”, the “polyreactivity (PSR sort gate)” value was “high polyreactivity”.
With “QVQLVESGGGLVQAGGSLRLSCSASGRIFQYYAMGWYIKAPGKERELVAAISGRGTSTYYADSVKGRFTISRDNAKNTVYLEMNSLKQEDTAVYYCNADINYKSYFIHTFTIIPYGYWGQGTQVTVSS” the “polyreactivity (PSR sort gate)” value was “low polyreactivity”.
With “QVQLVESGGGLVQAGGSLRLSCAASGRTFIVNTMGWYRQAPGKERELVAAITARGGRTYYADSVKGRFTISRDNAKNTVYLQMNSLIPEDTAVYYCNASTPPREAERYYWGQGTQVTVSS” the “polyreactivity (PSR sort gate)” value was “low polyreactivity”.
In the case of “QVQLVESGGGLVQAGGSLRLSCAASGFTFWEYALGWYRQAPGKERELVAAISRGTSTYYADSVKGRFTIPRDNAKNTVYLQMNSLKPEDTAVYYCAARQDPPLGYDYWGQGTQVTVSS”, the “polyreactivity (PSR sort gate)” value is reported as “low polyreactivity”.
In the case of “KVQLVESRGGLVQAGGSLRLSCAASGRTFIRYAMGWYRQAHGKEREFVAAITWSGGSTYYADSVKGRFTISRDNAKNTVYLQMNSLKPEDTAVYYCAKYPAARAVDYWGQGSQVTVSS”, the “polyreactivity (PSR sort gate)” value is reported as “high polyreactivity”.
For “QVQLVESGGGLVQAGGSLRLSCAASGSIFRSYAMGWYRQAPGKERELVAAITYSGGGTYYADSVKGRFTISRDNAKTTVYLQMNSLKPEDTAVYYCNAVGGIYDFDYWGQGTQVTVSS”, the “polyreactivity (PSR sort gate)” value was “high polyreactivity”.
In the case of “QVQLVETGGGLVQAGGSLRLSCAASGSTLAPYVMGWYRQAPGKERELVAVISTRTGRTYYADSVKGRFTISRDNAKNTVYLQMNSLKPEDTAVYYCAAPVYPYQVQTYDYWGQGTQVTVSS”, the “polyreactivity (PSR sort gate)” value is reported as “high polyreactivity”.
In the case of “QFQLVESGGGLVQEGGSLRLSCAASGRTLAKNAMGWYRQAPGKEREFVAAISRRGGSTYYADSVKGRFTISRDYAKYTVYLQLNSLKREDTAVYYCARASRQGYYQLSYDEFDYWGQGTQVTVSS”, the “polyreactivity (PSR sort gate)” value is reported as “high polyreactivity”.
For “QVQLQESGGGLVQAGGSLRLSCAASGLILARNYMGWYRQAPGTERELVSGIGVGASTNYADSVKGRFTISRDNAKNTVYLQMNSLEPEDTAVYYCAVGDTVLGYHYYWGQGTQVTVSN”, the “polyreactivity (PSR sort gate)” value was “low polyreactivity”.
For “QVQLVESGGGLVQAGGSLRLSCAASGFTFWAYTMGWYRQAPGKERELVAAITRSGGRTYYADSVKGRFTISRDNAKNTVYLQLNSLKPEDTAVYYCAAKIWSKDEKHDYWGQGTQVTGSS”, the “polyreactivity (PSR sort gate)” value was “high polyreactivity”.
In the case of “QVQLVESGGGLVQAGGSLRLSCAATGFTFRWYAMGWYRQAPGKERELVAAITSDDNTYYADSVKGRFTISRDNAKNTVYLQMNSLKPEDTAVYYCAAEYADYWTYIMGYWGQGTQVTVSS”, the “polyreactivity (PSR sort gate)” value is reported as “low polyreactivity”.
For “QVQLVESGGGLVQAGGSLRLSCAAYGNIFHRNAMGWYRKAPGKESEVVAAISWSGGSTYYADSVKGRFTISRDNAKNTVYLQMNSLKPEDTAVYYCNAYYYYRFKQSHPGLRSYYWGQGTQVTVSS”, the “polyreactivity (PSR sort gate)” value was “high polyreactivity”.
In the case of “QVQLVESGGGLVQAGGSLRLSCAASGRTFSYYSMGWYRQAPGKERELVAAITSGGGRTYYADSVKGRFTISRDNAKNTVYLQMNRLKPEDTAVYYCNALYTLYNGYDYWGQGTQVTVSS”, the “polyreactivity (PSR sort gate)” value is reported as “high polyreactivity”.
For “QVQLVESGGGLVQAGGSLRLSCAASGFTLLPYAMGWYRQAPGKERELVAAISRRGVSTYYADSVKGRFTISRDNAKNTVYLQMNSLIPEDTSVYYWASRYFTGYGLRTQFYFWGQGTQVTVSS”, the “polyreactivity (PSR sort gate)” value was “high polyreactivity”.
With “QVQLVESGGGLVQAGGSLRLSCAASGITFWKYTMGWYRQAPGKERELVAAITGRGGSTYYADSVKGRFTISRDNAMNTVYLQMNRLKPEDTAVYYCAAELRPGYRSSYGLIYDYWGQGTQVTVSS” the “polyreactivity (PSR sort gate)” value was “low polyreactivity”.
With “QVQLVESGGGLVQAGGSLRLSCPASGLNFTSYAMGWYRQAPGKERELVAAITWSGSSTYYADSVKGRFTISRDNAKNTVYLQMNSLKPEDTAVYYCAAYRYGRIYRQYAYDYWGQGTQVTVSS” the “polyreactivity (PSR sort gate)” value was “high polyreactivity”.
For “QVQLVESGGGLVQAGGSLRLSCAASGLIFSYYAMGWYRQAPGKERELVAAITGSGGSTYYADSVKGRFTISRDNAKNTVYLQMNSLKPEDTAVYYCAAGRYAYTLSRKYDYWGQGTQVTVSS”, the “polyreactivity (PSR sort gate)” value was “high polyreactivity”.
In the case of “QVQLVESGGGLVQAGGSLRLSCAASGFTFDNYAMGWYRQEPGKERELVAAINISGGRTYYADSVKGRFTISRDNAKNTVYLQMNSLKPEDTAVYYCNIYYWYYALDYWGQGTQVTVSS”, the “polyreactivity (PSR sort gate)” value is reported as “high polyreactivity”.
With “QVQLVESGGGLVQAGGSLRLSCAASGRIFQNYAMGWYRQATGKERELVAAIRRSSGRSYYADSVKGRFTISRDNAKNTVYLLMNSLKPEDTAVYYCNAVRGEEYDYWGQGTQVTVSS” the “polyreactivity (PSR sort gate)” value was “high polyreactivity”.
